Source: US5965725A, “Polypeptides, and preparation and DNA encoding thereof” (Seikagaku Kogyo Kabushiki Kaisha, priority 1994, dated 1999)
Ends that are not written are not given here.

Experiments:
Assay type in all cases: cell-based
Escherichia coli [1] = assay: Antimicrobial activity, growth inhibition at a single concentration (colony count); conditions: 50 μl of 40 μg/ml polypeptide added to 450 μl of 10,000 CFU/ml suspension in 10 mM phosphate buffer pH 7.0; 37° C. 1 hr
Description: (§1) Escherichia coli was suspended in 10 mM phosphate buffer, pH 7.0, at a concentration of 10,000 CFU/ml and 450 μl of the suspension was mixed with 50 μl each of polypeptide fraction T3 (polypeptide of [Formula 4]) (SEQ ID NO:3), T6 (polypeptide of [Formula 5]) (SEQ ID NO:4), and a polypeptide obtained by Example 1 each having a concentration of 40 μg/ml, and as a control 10 mM phosphate buffer, pH 7.0. The mixtures were incubated at 37° C. for 1 hr. Then, 100 μl of incubated mixture was inoculated in an agar medium, cultured at 37° C. for 12 hrs. and the number of colonies were counted with naked eye.

Staphylococcus aureus [2] = assay: as above; conditions: 50 μl of 40 μg/ml polypeptide added to 450 μl of 5,000 CFU/ml suspension in 10 mM phosphate buffer pH 7.0; 37° C. 1 hr
Description: as §1, with “In addition, Staphylococcsii aureus” for “Escherichia coli”, “5,000” for “10,000”, “4]),” for “4]) (SEQ ID NO:3),”

Candida albicans = assay: Determination of antimicrobial activity (colony count after 1 hr incubation in hypotonic buffer); conditions: 10 mM phosphate buffer pH 7.0 (hypotonic), 37° C. 1 hr, then agar culture 12 hrs
Description: (§2) Various microorganisms shown in Table 3 were suspended in 10 mM phosphate buffer, pH 7.0 (hypotonic solution). In 900 μl of 5,000-10,000 CFU/ml suspension, 100 μl of 2-fold serial diluted polypeptide solution at a concentration of 20 μg/ml obtained by Example 1 was added and incubated at 37° C. for 1 hr. Then, 100 μl of incubated mixture was inoculated in an agar medium, cultured at 37° C. for 12 hrs. and the number of colonies was counted with naked eye (see Infections and Immunity, 42, 10-14 (1983)). CFU means colony forming unit.

Escherichia coli [3] = assay: as above; conditions: 10 mM phosphate buffer pH 7.0 (hypotonic), 37° C. 1 hr, then agar culture 12 hrs
Description: as §2

Klebsiella pneumoniae = assay: as above; conditions: 10 mM phosphate buffer pH 7.0 (hypotonic), 37° C. 1 hr, then agar culture 12 hrs
Description: as §2

S. minnesota Re = assay: as above; conditions: 10 mM phosphate buffer pH 7.0 (hypotonic), 37° C. 1 hr, then agar culture 12 hrs
Description: as §2

[4] = system: Salmonella typhimurium LT2(S); assay: as above; conditions: 10 mM phosphate buffer pH 7.0 (hypotonic), 37° C. 1 hr, then agar culture 12 hrs
Description: as §2

Staphylococcus aureus [5] = assay: as above; conditions: 10 mM phosphate buffer pH 7.0 (hypotonic), 37° C. 1 hr, then agar culture 12 hrs
Description: as §2

T3: Trypsin degradation fraction of the Example 1 polypeptide, eluted at 27 min; 42 residues, C-terminal defensin-like part (ASSDNHSCAGNRGWCRSKCFRHEYVDTYYSAVCGRYFCCRSR; not fully specified (bridges); cysteine pairing not given here)
inhibited the growth of Escherichia coli at a rate of (Escherichia coli [1]): about 90%
inhibited the growth of Staphylococcus aureus at a rate of (Staphylococcus aureus [2]): about 30%

B1: polypeptide obtained by Example 1: Purified S5 fraction polypeptide from small granules of horseshoe crab hemocytes; 79 amino acids, about 8,200 by SDS-PAGE (protein)
chain: NPLIPAIYIGATVGPSVWAYLVALVGAAAVTAANIRRASSDNHSCAGNRGWCRSKCFRHEYVDTYYSAVCGRYFCCRSR
IC50 (μg/ml) (hypotension) (Candida albicans): 10 to 20 µg/mL
IC50 in hypotonic buffer (Escherichia coli [3]): 2.5 µg/mL
IC50 (μg/ml) (hypotension) (Klebsiella pneumoniae): < 1.3 µg/mL
IC50 (μg/ml) (hypotension) (S. minnesota Re): < 0.6 µg/mL
IC50 (μg/ml) (hypotension) [4]: 20 µg/mL
IC50 (μg/ml) (hypotension) (Staphylococcus aureus [5]): < 2.5 µg/mL
inhibited the growth of Escherichia coli at a rate of (Escherichia coli [1]): ≥ 95%
inhibited the growth of Staphylococcus aureus at a rate of (Staphylococcus aureus [2]): almost completely
